Test results: patent US20030180746, “Polymorphism detection and separation” (published 2003)

Legend:
[1] = biological target: T1, RecA (Escherichia coli, UniProt P0A7G6 P0A7G6:2-353); test: pulldown; Kan plasmid isolated from tet plasmid excess; PNA annealing oligo; details: label: 3'-BioTEG
[2] = biological target: T1, RecA; test: EMSA; Y-arm on OligoT/OligoU
Experimental: (§1) We then add double-stranded nucleic acid target, which is generally ³²P-end-labeled using T4 polynucleotide kinase to facilitate detection of the complex, at a concentration of approximately 20 nM and 10 mM magnesium acetate to a final volume of 10 μl. We incubate this reaction for 10 minutes at 37° C. to allow for synapsis between to the incoming oligonucleotide and the target nucleic acid molecule. We then add the second or “annealing” oligonucleotide in 1 μl to a concentration of 640 nM (calculated for the original 10 μl reaction volume) and incubate for 10 minutes at 37° C. to allow the second oligonucleotide to anneal to the target nucleic acid. We then denature the RecA bound to the oligonucleotide:target complex by cooling the reaction to about 4° C. in an ice bath and adding 1 μl of 10% SDS. The samples are then used immediately or stored at −20° C.
Oligonucleotides used in this example. We use the OligoT/OligoU duplex as the target nucleic acid for these experiments. We use incoming DNA oligonucleotides complementary over a range of lengths to the end of the duplex target as follows: OligoV is a 20-mer with the sequence 5′-[…]-3′ (SEQ ID NO: 10); OligoW is a 25-mer with the sequence 5′-[…]-3′ (SEQ ID NO: 11); OligoX is a 30-mer (SEQ ID NO: 8); OligoY is a 35-mer with the sequence 5′-[…]-3′ (SEQ ID NO: 12); OligoZ is a 40-mer with the sequence 5′-[…]-3′ (SEQ ID NO: 13); and Oligo1 is a 46-mer with the sequence 5′-[…]-3′ (SEQ ID NO: 14). We use annealing DNA oligonucleotides complementary to the end of the duplex target (and to the incoming oligonucleotides) over a range of lengths as follows: Oligo2 is a 20-mer with the sequence 5′-[…]-3′ (SEQ ID NO: 15); Oligo4 is a 25-mer with the sequence 5′-[…]-3′ (SEQ ID NO: 16); Oligo5 is a 30-mer with the sequence 5′-[…]-3′ (SEQ ID NO: 9); Oligo6 is a 35-mer with the sequence 5′-[…]-3′ (SEQ ID NO: 17); Oligo7 is a 40-mer with the sequence 5′-[…]-3′ (SEQ ID NO: 18); and Oligo8 is a 46-mer with the sequence 5′-[…]-3′ (SEQ ID NO: 19).

[3] = biological target: T1, RecA; test: EMSA; Y-arm on OligoT/OligoU duplex with Oligo5; almost quantitative; ATP-gamma-S, Mg2+, 37 C
Experimental: as §1
To test the formation of Y-arms under our assay conditions, we use a different target duplex DNA composed of two linear 67-mer oligonucleotides with sequence complementary to each other. The sequence of the first target strand, designated “OligoT”, is: 5′-[…]-3′ (SEQ ID NO: 6) and the sequence of the second target strand, designated “OligoU”, is: 3′-[…]-5′ (SEQ ID NO: 7). We use two oligonucleotides complementary to the end of the OligoT/OligoU linear target duplex in these Y-arm experiments. […]

[4] = biological target: T1, RecA; test: EMSA; matched Hyg(rep) 8 kb plasmid target with matched PNA or LNA annealing oligo; details: label: 5'-Cy5
Experimental: The target in these experiments is one of two nonsupercoiled plasmids of about 8 kb, differing in a single nucleotide. The incoming oligonucleotides are 31-mer deoxyribonucleotides labeled at the 5′ terminus with either Cy5 or Cy3; the annealing oligonucleotides are 15-mer PNA oligonucleotides acetylated at the N terminus. Deproteinization is performed by adding SDS at either 37° C. or 45° C. to aliquots of the reaction mixture and incubating at the indicated temperature for various amounts of time, after which time the aliquots are removed and placed on dry ice.
Two gels are run separately, but scanned at the same time to allow a direct comparison. Results are shown in FIGS. 18A and 18B for the 37° C. deproteinization data only.

[5] = biological target: T1, RecA; test: EMSA; Hyg- PCR target, LNA annealing oligos; details: label: 5'-Cy5
Source text: We also form double D-loops using a PCR product produced from a plasmid containing the a functional hygromycin resistance gene (Hyg⁺) or a hygromycin resistance gene containing a point mutation (Hyg⁻; FIG. 15; SEQ ID NO:______]) using primers AUR123f (5′-[…]-3′; SEQ ID NO: 45) and Hyg1560r (5′-[…]-3′; SEQ ID NO: 46). We follow the protocol described in this Example for the formation of double D-loops in the Kan⁻ PCR product using HygUDF/45G as the incoming oligonucleotide (5′-Cy™ 5-[…]-3′; SEQ ID NO: 47) and various annealing oligonucleotides as indicated in Table 2. We analyze the samples prepared by separating on a 2.5% agarose gel at 4° C. as described above.

[6] = biological target: T1, RecA; test: EMSA; beta-tubulin PCR product; RecA, incoming and LNA annealing oligos all required; details: label: 5'-biotin
[7] = biological target: T1, RecA; test: EMSA; OligoA/OligoB target, opposite strand; ATP-gamma-S, Mg2+, 37 C
Experimental: as §1
Oligonucleotides used in this example. We use the OligoA/OligoB duplex as the target nucleic acid for these experiments. As the incoming oligonucleotide, we use either OligoC (SEQ ID NO: 3) or the complementary oligonucleotide which targets the opposite strand of the duplex target, designated “OligoD”, which has the sequence 5′-[…]-3′ (SEQ ID NO: 20).

[8] = biological target: T1, RecA; test: EMSA; Y-arm on OligoT/OligoU; longer oligos more efficient
Experimental: as §1
Oligonucleotides used in this example. We use the OligoT/OligoU duplex as the target nucleic acid for these experiments. […]

[9] = biological target: T1, RecA; test: EMSA; OligoA/OligoB 70-mer duplex target; double D-loop with OligoI or LNA OligoN; ATP-gamma-S, Mg acetate, 37 C
Experimental: as §1
Oligonucleotides used in this example. We employ the protocol described in Example 1 to form double D-loops between two DNA oligonucleotides and linear, duplex target DNA. The target duplex DNA is composed of two linear 70-mer oligonucleotides with sequence complementary to each other. The sequence of the first target strand, designated “OligoA”, is: 5′-[…]-3′ (SEQ ID NO: 1) and the sequence of the second target strand, designated “OligoB”, is: 3′-[…]-5′ (SEQ ID NO: 2). […]

T1 sequence (P0A7G6 2-353, one chain of several): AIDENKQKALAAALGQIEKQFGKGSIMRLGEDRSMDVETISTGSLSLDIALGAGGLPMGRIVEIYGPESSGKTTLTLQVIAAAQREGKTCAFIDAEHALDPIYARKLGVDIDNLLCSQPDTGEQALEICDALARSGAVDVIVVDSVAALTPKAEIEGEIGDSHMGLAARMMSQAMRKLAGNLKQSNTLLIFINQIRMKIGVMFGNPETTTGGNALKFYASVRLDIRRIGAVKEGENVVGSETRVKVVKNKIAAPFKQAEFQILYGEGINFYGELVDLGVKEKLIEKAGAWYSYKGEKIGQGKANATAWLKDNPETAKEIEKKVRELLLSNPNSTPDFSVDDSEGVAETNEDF

B1: KAN/LDB/31t (ssDNA)
DNA: GAGGCTATTCGGCTATGACTGGGCACAACAG
- binding result [1]: binds

B2: Oligo1 incoming 46-mer (ssDNA)
DNA: GCAGACTTCTCCTCAGGAGTCAGGTGCACCATGGTGTCTGTTTGAG
- binding result [2]: binds

B3: OligoY incoming 35-mer (ssDNA)
DNA: GCAGACTTCTCCTCAGGAGTCAGGTGCACCATGGT
- binding result [2]: binds

B4: OligoX incoming 30-mer (ssDNA)
DNA: GCAGACTTCTCCTCAGGAGTCAGGTGCACC
- binding result [3]: binds

B5: HYG(NT)D5Cy5/31C(rep) (ssDNA)
DNA: ATTTACCCGCAGGACCTATCCACGCCCTCCT
- binding result [4]: binds

B6: HygUDF/45G incoming (ssDNA)
DNA: CGCAGCTATTTACCCGCAGGACCTATCCACGCCCTCCTACATCGA
- binding result [5]: binds

B7: betaTUBwt/31D/5'Bio (ssDNA)
DNA: GGCCTGAAGATGTCGGCCACCTTCATCGGCA
- binding result [6]: binds

B8: OligoW incoming 25-mer (ssDNA)
DNA: GCAGACTTCTCCTCAGGAGTCAGGT
- binding result [2]: binds

B9: OligoD incoming 30-mer (ssDNA)
DNA: CTGTTGTGCCCAGTCCTAGCCGAATAGCCT
- binding result [7]: binds

B10: OligoV incoming 20-mer (ssDNA)
DNA: GCAGACTTCTCCTCAGGAGT
- binding result [8]: binds

B11: OligoZ incoming 40-mer (ssDNA)
DNA: GCAGACTTCTCCTCAGGAGTCAGGTGCACCATGGTGTCTG
- binding result [2]: binds

B12: OligoC incoming 30-mer (ssDNA)
DNA: AGGCTATTCGGCTACGACTGGGCACAACAG
- binding result [9]: binds
